In general, IC50 refers to the midpoint of a concentration-inhibition curve.

Experiment [1] concerns the target T1, CXCR3 (human cell surface protein CD183) (human, UniProt P49682 1-368).
T1 sequence (looked up): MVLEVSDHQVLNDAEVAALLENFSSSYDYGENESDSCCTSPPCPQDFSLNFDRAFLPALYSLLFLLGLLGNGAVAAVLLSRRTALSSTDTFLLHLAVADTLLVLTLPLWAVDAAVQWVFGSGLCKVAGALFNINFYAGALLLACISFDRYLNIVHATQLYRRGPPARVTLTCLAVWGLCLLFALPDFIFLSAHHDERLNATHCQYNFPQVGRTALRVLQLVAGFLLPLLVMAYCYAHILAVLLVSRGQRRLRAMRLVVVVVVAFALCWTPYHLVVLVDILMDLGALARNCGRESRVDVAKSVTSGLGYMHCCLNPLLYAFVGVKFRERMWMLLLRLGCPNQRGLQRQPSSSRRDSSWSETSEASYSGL
The experiment in a line: cell-based or functional assay.

The target in experiment [2] is T1, CXCR3 (human cell surface protein CD183). Put plainly: cell-based or functional assay. This is another data set of the same source.
For experiment [3], the target named is T2, rat CXCR3 (on polarized rat Th1 cells) (rat, UniProt Q9JII9 1-367).
T2 construct: whole, on cells; the target meant is rat CXCR3
T2 sequence (looked up): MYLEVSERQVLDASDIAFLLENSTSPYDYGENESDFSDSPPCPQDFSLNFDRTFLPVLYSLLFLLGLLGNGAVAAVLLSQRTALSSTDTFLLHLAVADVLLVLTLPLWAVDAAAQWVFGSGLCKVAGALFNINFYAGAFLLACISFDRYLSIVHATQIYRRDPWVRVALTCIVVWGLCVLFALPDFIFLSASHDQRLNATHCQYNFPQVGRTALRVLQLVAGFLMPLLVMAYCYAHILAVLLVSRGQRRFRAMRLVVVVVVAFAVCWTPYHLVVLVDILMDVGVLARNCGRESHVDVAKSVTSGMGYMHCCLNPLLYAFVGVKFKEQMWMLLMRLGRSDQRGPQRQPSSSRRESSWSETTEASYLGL
Put plainly: FACS on polarized rat Th1 cells. The protocol:
FACS analysis was performed to determine reactivity of mouse CXCR3mAb to polarized rat Th1 cells. Only rabbit anti-mouse CXCR3 Ab bound to rat Th1 cells. […] As a control, mouse anti-CXCR3mAb binding to human Th1 cells is also shown (bottom panel).
The parental mouse CXCR3mAb was tested for binding to polarized rat Th1 cells by FACS. Only rabbit anti-mouse CXCR3 Ab (positive control) bound to rat Th1 cells.

In experiment [4] the target is T1, CXCR3 (human cell surface protein CD183). The experiment in a line: competition with Eu-IP-10 binding to Th1 cells.
Experiment [5] has the same target. Put plainly: displacement of 125I-I-Tac binding to Th1 cells. (In general: Displacement assays read how much labelled ligand stays bound in the presence of the test substance.)
Experiment [6] has the same target. The experiment in a line: displacement of 125I-IP-10 binding to Th1 cells. The protocol:
Figure 14: FIG. 14 illustrates expression of CXCR3 on Th1 cells. Th1 and Th2 cells were generated from cord blood and CXCR3 and CCR4 expression were determined by FACS. CXCR3 was present only Th1 cells. […] IC$50$ values were calculated using Prizm software. Lead candidates were highlighted in green. […] IC$50$ values were calculated using Prizm software. Lead candidates were highlighted in green.

Experiment [7] has the same target. Put plainly: competition with Eu-V44 (Eu-labeled mouse CXCR3mAb) binding to Th1 cells. The protocol:
Th1 cells were incubated in a 96 well plate with Eu-CXCR3mAb in the absence or presence of various concentrations humanized CXCRmAbs. After incubation (1 hr at RT), cell bound Eu-CXCR3mAb was separated from free Europium by washing three times and the plate was read using Vctor2 fluorometer. IC$50$ values were calculated using Prizm software. Ab1 has a heavy chain sequence of humanized anti-CXCR3 V44D7 VH Lead #5 amino acid and a light chain sequence of humanized anti-CXCR3 V44D7 VK Lead #1 (see Informal Sequence Listing) in an IgG1 backbone. Ab2 has a heavy chain sequence of humanized anti-CXCR3 V44D7 VH Lead #5 and a light chain sequence of humanized anti-CXCR3 V44D7 VK Lead #7 (see Informal Sequence Listing) in an IgG1 backbone. Humanized Ab (IgG4) has a heavy chain sequence of humanized anti-CXCR3 V44D7 VH Lead #5 and a light chain sequence of the original mouse anti-CXCR3 V44D7 VK in an IgG4 backbone. Figure 22: FIG. 22 illustrates inhibition Eu-CXC10 by humanized CXCR3Abs. […] After incubation (1 hr at RT), cell bound Eu-CXCL10 was separated from free Europium by washing three times and the plate was read using Vctor2 fluorometer. IC$50$ values were calculated using Prizm software. […] After 2 hr incubation at 37° C., cells migrated to the bottom wells were determined by cell titer glo method (Promega).

Experiment [8] addresses T3, CXCR3 (human cell surface protein CD183) (human, UniProt P49682 1-368).
T3 chain: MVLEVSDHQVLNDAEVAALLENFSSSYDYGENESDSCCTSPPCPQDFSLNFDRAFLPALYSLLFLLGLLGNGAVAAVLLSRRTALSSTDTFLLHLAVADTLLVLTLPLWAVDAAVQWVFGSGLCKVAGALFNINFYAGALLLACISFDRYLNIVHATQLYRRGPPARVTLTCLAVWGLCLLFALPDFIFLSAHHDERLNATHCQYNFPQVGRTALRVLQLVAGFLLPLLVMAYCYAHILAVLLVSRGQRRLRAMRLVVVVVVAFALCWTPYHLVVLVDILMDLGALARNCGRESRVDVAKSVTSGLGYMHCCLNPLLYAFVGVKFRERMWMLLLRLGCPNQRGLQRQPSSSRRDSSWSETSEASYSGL
Put plainly: 125I-CXCL11 binding inhibition on Th1 cells.

B1: Mouse anti-CXCR3 V44D7 (antibody, V domains shown)
VH: EVMLVESGGGLVKPGGSLKLSCAASGFTFSNYAMSWVRQTPEKRLEWVATISSGGGYTYYPDSLKGRFTISRDNAKNTLFLQMSSLRSEDTAVYYCVRHGAPMTTVITYAPYYFDYWGQGTTLTVSS
VL: ENVLTQSPAIMSASLGEKVTMNCRASSSVKYMYWYQQKSDASPKLWIYYTSNLAPGVPARFSGSGSGNSYSLTISSMEGEDAATYYCQQFTTSPYTFGGGTKLEIK
notes: also called V44D7A; Ab#5
As to B1, the “Inhibition of IP-10-induced Th1 chemotaxis, IC50” value in experiment [1] worked out at 0.035 µg/mL. For the same molecule, the “Chemotaxis IC50” value in experiment [2] worked out at 0.09 nM. For the same molecule, the binding result in experiment [3] is on record as “no binding”. The IC50 in experiment [4] is 0.14 nM; in experiment [5], 0.1 nM; in experiment [6] it was 0.13 nM; in experiment [7], 0.29 nM.

B2: CXCL11 (I-TAC, interferon-inducible T cell a-chemoattractant) (ligand)
chain: FPMFKRGRCLCIGPGVKAVKVADIEKASIMYPSNNCDKIEVIITLKENKGQRCLNPKSKQARLIIKKVERKNF
modifications: 125I label, site not stated
In experiment [8], B2 gave an IC50 of 0.01 nM.

B3: Humanized Ab2 H5K7 (antibody, V domains shown)
VH: EVQLLESGGGLVQPGGSLRLSCAASGFTFSNYAMSWVRQAPGKGLEWVSTISSGGGYTYYPDSLKGRFTISRDNSKNTLYLQMNSLRAEDTAVYYCAKHGAPMTTVITYAPYYFYYWGQGTTVTVSS
VL: ENVLTQSPAFLSVTPGEKVTITCRASSSVKYMYWYQQKPDQAPKLWIYYTSNLAPGVPSRFSGSGSGNDYTFTISSLEAEDAATYYCQQFTTSPYTFGGGTKLEIK
notes: IgG1 backbone, human kappa
With B3, in experiment [2], the “Chemotaxis IC50” value was determined as 0.28 nM. Also, the IC50 came to 0.35 nM in experiment [4] and 1.82 nM in experiment [7].

For the origin of these results see US8435522 (Teva, dated 2013).
